In PMC4114019:

Molecular target: T1, Purified FLAG-IKKε protein, Q14164
T1 chain: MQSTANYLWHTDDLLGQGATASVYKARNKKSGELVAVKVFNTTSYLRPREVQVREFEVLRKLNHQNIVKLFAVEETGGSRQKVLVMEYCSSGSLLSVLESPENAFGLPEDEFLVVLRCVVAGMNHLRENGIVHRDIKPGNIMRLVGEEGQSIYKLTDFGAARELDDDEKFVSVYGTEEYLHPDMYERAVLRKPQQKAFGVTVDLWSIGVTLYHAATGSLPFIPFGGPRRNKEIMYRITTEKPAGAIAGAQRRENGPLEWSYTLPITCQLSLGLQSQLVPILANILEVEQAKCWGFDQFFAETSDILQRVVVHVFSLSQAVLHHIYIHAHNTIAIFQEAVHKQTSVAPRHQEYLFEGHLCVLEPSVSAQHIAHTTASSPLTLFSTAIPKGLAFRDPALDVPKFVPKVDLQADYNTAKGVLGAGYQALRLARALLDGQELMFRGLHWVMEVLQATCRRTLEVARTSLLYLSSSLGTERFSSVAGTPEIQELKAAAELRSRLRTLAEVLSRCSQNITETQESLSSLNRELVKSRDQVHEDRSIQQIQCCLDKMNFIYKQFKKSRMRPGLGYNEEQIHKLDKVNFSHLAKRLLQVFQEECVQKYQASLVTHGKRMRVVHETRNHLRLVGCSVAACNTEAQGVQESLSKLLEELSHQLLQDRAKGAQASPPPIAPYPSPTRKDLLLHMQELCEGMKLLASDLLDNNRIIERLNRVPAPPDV
Assay: native gel or EMSA
Settings: remark: other sources report otherwise

stoichiometry N: 2
B1: Purified FLAG-IKKε protein, Q14164 1-716 (enzyme)
chain: T1 chain
